Measured values from patent US20250163180A1 (ABL BIO, published 2025).

What was measured:
[1] = target: T1, human 4-1BB expressed on GloResponse NFkB-luc2/4-1BB Jurkat cells (Promega) (human, UniProt Q07011 24-255); assay: cell-based or functional assay
[2] = target: T1, human 4-1BB expressed on GloResponse …; assay: cell-based or functional assay; remark: listed apart in the source
[3] = target: T1, human 4-1BB expressed on GloResponse …; assay: cell-based or functional assay; remark: listed apart in the source
[4] = target: T2, human 4-1BB-Fc protein (Sino Biological) (human, UniProt Q07011 24-186); assay: ELISA, plate coated with human 4-1BB-Fc at 0.1 ug/mL, detection with HRP-conjugated goat anti-human IgG
T2 construct: not shown: Fc part of the bought fusion protein
T2 sequence (Q07011 24-186 limits assumed): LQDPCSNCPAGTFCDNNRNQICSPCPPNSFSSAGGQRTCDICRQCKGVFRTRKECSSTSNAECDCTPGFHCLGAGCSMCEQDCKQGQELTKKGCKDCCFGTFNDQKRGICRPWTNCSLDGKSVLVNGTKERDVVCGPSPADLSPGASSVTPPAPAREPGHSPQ

T1 sequence (Q07011 24-255 limits assumed): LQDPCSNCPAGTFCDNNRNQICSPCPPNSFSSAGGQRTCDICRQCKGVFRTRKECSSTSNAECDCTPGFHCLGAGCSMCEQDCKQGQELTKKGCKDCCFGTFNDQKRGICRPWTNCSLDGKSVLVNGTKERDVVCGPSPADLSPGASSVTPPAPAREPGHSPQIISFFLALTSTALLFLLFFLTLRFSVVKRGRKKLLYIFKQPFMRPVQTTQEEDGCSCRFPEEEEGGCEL

B1: Urelumab (antibody, V domains shown)
VH: QVQLQQWGAGLLKPSETLSLTCAVYGGSFSGYYWSWIRQSPEKGLEWIGEINHGGYVTYNPSLESRVTISVDTSKNQFSLKLSSVTAADTAVYYCARDYGPGNYDWYFDLWGRGTLVTVSS
VL: EIVLTQSPATLSLSPGERATLSCRASQSVSSYLAWYQQKPGQAPRLLIYDASNRATGIPARFSGSGSGTDFTLTISSLEPEDFAVYYCQQRSNWPPALTFGGGTKVEIK
[1]
  fold difference in EC50 with against without FcγRIIb CHO-K1 cells: 2.2 fold
  fold difference in top RLU with against without FcγRIIb CHO-K1 cells: 13.5 fold
[2]
  EC50, FcγRIIb-independent 4-1BB bioassay: 0.52 nM
  Fold of induction (RLU), FcγRIIb-independent 4-1BB bioassay: 15.6 fold
[3]
  EC50, FcγRIIb-dependent 4-1BB bioassay: 0.236 nM
  Fold of induction (RLU), FcγRIIb-dependent 4-1BB bioassay: 196 fold

B2: AB41 (antibody, human IgG4 S228P, kappa, V domains shown)
VH: QVQLQQSGAEVIKPGASVKLSCKASGYTFSSYWMHWVRQAPGQGLEWIGEINPGNGHTNYNEKFKSRATLTGDTSTSTVYMELSSLRSEDTAVYYCARSFTTARAFAYWGQGTLVTVSS
VL: DIVMTQSPAFLSVTPGEKVTITCRASQTISDYLHWYQQKPDQAPKLLIKYASQSISGIPSRFSGSGSGTDFTFTISSLEAEDAATYYCQDGHSFPPTFGQGTKLEIKR
notes: also called anti-4-1BB antibody AB41
[4]
  EC50: 0.2 nM

B3: 1A10 (antibody, human IgG4 S228P, lambda, V domains shown)
VH: EVQLLESGGGLVQPGGSLRLSCAASGFTFSSYDMSWVRQAPGKGLEWVSWISYSGGSIYYADSVKGRFTISRDNSKNTLYLQMNSLRAEDTAVYYCARDGQRNSMREFDYWGQGTLVTVSS
VL: QSVLTQPPSASGTPGRRVTISCSGSSSNIGNNYVTWYQQLPGTAPKLLIYADSHRPSGVPDRFSGSKSGTSASLAISGLRSEDEADYYCATWDYSLSGYVFGGGTKLTVLG
notes: also called anti-4-1BB antibody 1A10
[4]
  EC50: 0.24 nM

B4: 1A12 (antibody, human IgG4 S228P, lambda, V domains shown)
VH: EVQLLESGGGLVQPGGSLRLSCAASGFTFSGYDMSWVRQAPGKGLEWVSVIYPDDGNTYYADSVKGRFTISRDNSKNTLYLQMNSLRAEDAAVYYCAKHGGQKPTTKSSSAYGMDGWGQGTLVTVSS
VL: B3 VL
notes: also called anti-4-1BB antibody 1A12
[4]
  EC50: 0.18 nM
